Data on 3 molecules can be found in PMC5473857, “ZipA and FtsA* stabilize FtsZ-GDP miniring structures” (Scientific Reports, 2017).

To fix the notation:
B1: FtsZ from E. coli (wild type, unlabeled) (natural protein, UniProt P0A9A6 1-383, looked up)
chain: MFEPMELTNDAVIKVIGVGGGGGNAVEHMVRERIEGVEFFAVNTDAQALRKTAVGQTIQIGSGITKGLGAGANPEVGRNAADEDRDALRAALEGADMVFIAAGMGGGTGTGAAPVVAEVAKDLGILTVAVVTKPFNFEGKKRMAFAEQGITELSKHVDSLITIPNDKLLKVLGRGISLLDAFGAANDVLKGAVQGIAELITRPGLMNVDFADVRTVMSEMGYAMMGSGVASGEDRAEEAAEMAISSPLLEDIDLSGARGVLVNITAGFDLRLDEFETVGNTIRAFASDNATVVIGTSLDPDMNDELRVTVVATGIGMDKRPEITLVTNKQVQQPVMDRYQQHGMAPLTQEQKPVAKVVNDNAPQTAKEPDYLDIPAFLRKQAD
notes: Cell division protein FtsZ, E. coli; assembles into polymers with GTP, GDP or GMPCPP; also called FtsZ-GTP; FtsZ-GDP; source: over-expressed from plasmid pET11b, purified (30% saturated ammonium sulfate, source Q 10/10 column)
B2: FtsZ T151C/Y222W labeled with ATTO-655-maleimide (natural protein, E. coli, UniProt P0A9A6 1-383, looked up)
chain: B1 chain with T151C, Y222W
modifications: labeled with ATTO-655-maleimide
notes: Cell division protein FtsZ, E. coli, double mutant T151C/Y222W; Used diluted with a 9-fold excess of unlabeled wild-type FtsZ; also called FtsZY222W/T151C; labeled FtsZ; source: over-expressed from plasmid pET11b, purified (ammonium sulfate, source Q 10/10 column)
B3: PaFtsZ (FtsZ from Pseudomonas aeruginosa), full length (natural protein, UniProt P47204 1-394, looked up)
chain: MFELVDNIAQTAVIKVIGVGGGGGNAVNHMAKNNVEGVEFICANTDAQALKNIAARTVLQLGPGVTKGLGAGANPEVGRQAALEDRERISEVLEGADMVFITTGMGGGTGTGAAPIIAEVAKEMGILTVAVVTRPFPFEGRKRMQIADEGIRALAESVDSLITIPNEKLLTILGKDASLLAAFAKADDVLAGAVRGISDIIKRPGMINVDFADVKTVMSEMGMAMMGTGCASGPNRAREATEAAIRNPLLEDVNLQGARGILVNITAGPDLSLGEYSDVGNIIEQFASEHATVKVGTVIDADMRDELHVTVVATGLGARLEKPVKVVDNTVQGSAAQAAAPAQREQQSVNYRDLDRPTVMRNQSHGSAATAAKLNPQDDLDYLDIPAFLRRQAD
notes: Cell division protein FtsZ, Pseudomonas aeruginosa; also called His6-PaFtsZ; source: expressed from pET15b (NdeI/BamHI), purified (Talon column, thrombin, source Q 10/10 column)

Substitutions are numbered along the chain they refer to. Names may count otherwise.

Series [1] deals with the molecule itself. Nature of the series: negative-stain electron microscopy; FtsZ alone assembled with GTP; 5 uM FtsZ in HMK buffer pH 7.5 (50 mM HEPES, 100 mM KAc, 5 mM MgAc); also 5 and 10 uM FtsZ in MEK buffer pH 6.5 with 1 mM EDTA plus GTP, and 5 uM FtsZ in HMK with 0.5 mM GMPCPP; 2% uranyl acetate.
In series [2] the target is B1. The series is described as follows: Trp quenching of ATTO fluorescence; 1 part ATTO-655-labeled FtsZ T151C/Y222W mixed with 9 parts unlabeled wild-type FtsZ; MMK buffer pH 6.5; 25 °C; excitation 650 nm, emission 680 nm; assembly kinetics. The following applies: both partners purified.
Series [3] concerns the molecule itself. The series is described as follows: negative-stain electron microscopy; FtsZ alone assembled with 0.5 mM GDP, HMK buffer pH 7.5; 5 uM (and 15 uM for E. coli FtsZ); 2% uranyl acetate.

In the case of B1, the binding result in series [1] is on record as “binds”.

For B2, the binding result in series [2] is on record as “binds”.

On to B3, for which, in series [3], the binding result was “binds”.
